From publication PMC10990931, “Cryo-EM structures of RAD51 assembled on nucleosomes containing a DSB site” (Nature, 2024) come the findings set out here.

Data set [1] has as its target nucleosome (human histones H2A, H2B, H3.1 and H4 with Widom 601 DNA), P04908;P06899;P68431;P62805. The data set can be described thus: electrophoretic mobility shift assay. The following applies: read off a plot.
Data set [2] concerns the molecule itself. The data set can be described thus: cryo-EM micrographs; RAD51 alone, without nucleosome and DNA (WT 92.5 µM, K64A/K70A 73.3 µM, R235D 55.2 µM), 1 mM AMP-PNP; 37 °C 30 min, 34 mM HEPES-NaOH pH 7.5, 135 mM NaCl, 1 mM MgCl2; filament formation.
The mark [3] stands for this setting: ADP, RAD51 3.6 µM, parent: est. 100.
Where [4] appears, read: AMP-PNP, RAD51 1.2 µM, parent: est. 33.
The mark [5] stands for this setting: AMP-PNP, RAD51 2.4 µM, parent: est. 92.
Where [6] appears, read: AMP-PNP, RAD51 3.6 µM, parent: est. 99.

Take human RAD51 (from UniProt Q06609) K64A: the response in data set [1] (setting [3]) is -1%; in data set [1] (setting [4]), 26%; in data set [1] (setting [5]), 86%; in data set [1] (setting [6]), 98%.

Turning to “human RAD51 (from UniProt Q06609) K64A; K70A”, the response in data set [1] (setting [3]) was -5%; in data set [1] (setting [4]), 3%; in data set [1] (setting [5]) it was 20%; in data set [1] (setting [6]) it was 59%.

As to human RAD51 (from UniProt Q06609) K70A, the response in data set [1] (setting [3]) was -9%; in data set [1] (setting [4]), 19%; in data set [1] (setting [5]) it was 78%; in data set [1] (setting [6]) it was 93%.

B1: RAD51(K64A/K70A) (natural protein, human)
chain: MAMQMQLEANADTSVEEESFGPQPISRLEQCGINANDVKKLEEAGFHTVEAVAYAPKKELINIAGISEAAADKILAEAAKLVPMGFTTATEFHQRRSEIIQITTGSKELDKLLQGGIETGSITEMFGEFRTGKTQICHTLAVTCQLPIDRGGGEGKAMYIDTEGTFRPERLLAVAERYGLSGSDVLDNVAYARAFNTDHQTQLLYQASAMMVESRYALLIVDSATALYRTDYSGRGELSARQMHLARFLRMLLRLADEFGVAVVITNQVVAQVDGAAMFAADPKKPIGGNIIAHASTTRLYLRKGRGETRICKIYDSPCLPEAEAMFAINADGVGDAKD
notes: RAD51, human; source: E. coli, purified (Ni-NTA agarose, thrombin, spermidine precipitation, MonoQ)
In the case of B1, the binding result in data set [2] was “binds”.

B2: RAD51(R235D) (natural protein, human)
chain: MAMQMQLEANADTSVEEESFGPQPISRLEQCGINANDVKKLEEAGFHTVEAVAYAPKKELINIKGISEAKADKILAEAAKLVPMGFTTATEFHQRRSEIIQITTGSKELDKLLQGGIETGSITEMFGEFRTGKTQICHTLAVTCQLPIDRGGGEGKAMYIDTEGTFRPERLLAVAERYGLSGSDVLDNVAYARAFNTDHQTQLLYQASAMMVESRYALLIVDSATALYRTDYSGDGELSARQMHLARFLRMLLRLADEFGVAVVITNQVVAQVDGAAMFAADPKKPIGGNIIAHASTTRLYLRKGRGETRICKIYDSPCLPEAEAMFAINADGVGDAKD
notes: as for B1
In the case of B2, the binding result in data set [2] is reported as “binds”.
